From the RNAGym collection of RNA variant scans (doi:10.1073/pnas.2313332121)
This sample holds only a part of the variants without activity.

B1: TPR 5TU (parent)
chain: GGAUCUUCUCGAUCUAACAAAAAAGACAAAUCUGCCACAAAGCUUGAGAGCAUCUUCGGAUGCAGAGGCGGCAGCCUUCGGUGGCGCGAUAGCGCCAACGUUCUCAACUAUGACACGCAAAACGCGUGCUCCGUUGAAUGGAGUUUAUCAUG

Variants of: B1
Test: polymerase ribozyme fitness, log enrichment relative to wild type (log ratio); higher = more active; in vitro selection for triplet polymerase activity
How it was run: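 One round of in vitro selection, in triplicate, was applied to PCR-built, transcribed mutant libraries of each subunit of a heterodimeric triplet polymerase ribozyme. The steps were annealing with a biotinylated primer, partner subunit and triplets, incubation frozen at −7 °C, gel excision of extended constructs, streptavidin-bead capture and RT-PCR. Fitness is the logarithm, base 2, of genotype enrichment over wild-type enrichment from inverse-variance-weighted replicate averages of Illumina-sequenced inputs and outputs, keeping genotypes with ≥10 input reads and ≥1 read per output.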

Row | Variant | polymerase ribozyme fitness (log ratio)
1 | G25A A29C A40U G68C C93A A97U | ≤ -4.2
2 | C27A U33G U55A C116G | -4.1
3 | C27A G34A G50A A64U U78A G94U A106U G126C U148G | ≤ -4.2
4 | C27G A28U G81C G141A | ≤ -4.2
5 | C27A U44A U61A C95U G117C A121U C129G | ≤ -4.2
6 | A24U G83C C99G | -4.19
7 | G25A A41U C43U C54U U55A G70A G92A G133U U139G | ≤ -4.2
8 | A28C A39C | ≤ -4.2
9 | A24U U61A C93U U101C | -3.93
10 | A26U C87U G141U | -1.66
11 | C27A U77A G94A C114U | ≤ -4.2
12 | C27U C76G G88A C93G G100U | ≤ -4.2
13 | A26U A30C A49G G92C | ≤ -4.2
14 | A24U A91G A97G A115U | -4.19
15 | A28C A66G U148A | ≤ -4.2
16 | A26C G92U A106G | -0.538
17 | A26U C54G C87G A106G U130G | ≤ -4.2
18 | G25U A29U C38U G70C | ≤ -4.2
19 | C27G C96U | -3.97
20 | A26C A41U | -3.05
21 | G25U A37G C85A U148C | ≤ -4.2

Row | Variant | polymerase ribozyme fitness (log ratio)
22 | A26U G92U | -2.66
23 | A26U A41C A49U U53A C95U U130A C132A G143A U148C | ≤ -4.2
24 | A28C A40C G48U G50C C95U G117C A119U C123U | ≤ -4.2
25 | A28C C87A C108G U146C | ≤ -4.2
26 | G25C C54U C57U C75U G126A | -2.79
27 | A26G G50C A91G G117A C125U G140A G143C | ≤ -4.2
28 | A26U U55G U56A C87U C96U | -3.35
29 | G25C G48U U55A C85U A147C | -3.98
30 | A28C G94C | -4.04
31 | G25U A52U U145C | -3.91
32 | A26U G59U C69G A142G | -2.52
33 | G25C G46A G50U G83A C95A A97G U127G | ≤ -4.2
34 | G25U A28C G50C A52C C93G | ≤ -4.2
35 | A26U C38A | -2.37
36 | A24U U44A C57G G74U C76A G100A A138C | ≤ -4.2
37 | C27U U55G U61A C87G | ≤ -4.2
38 | C27A C32U C95G A115C A122U C129A C131A | ≤ -4.2
39 | A26U U44A A97U | ≤ -4.2
40 | C27G U55A A60G C125U | ≤ -4.2
41 | C27G A49G A66C | ≤ -4.2
42 | C27U C95A A138G | ≤ -4.2

Row | Variant | polymerase ribozyme fitness (log ratio)
43 | C27U A52C C85G C116G G128U A137G | ≤ -4.2
44 | G25A U33C C35A A73C A91G G117A C118U | ≤ -4.2
45 | A24U C54A | -0.922
46 | G25C U33G G59A U78A G92C C99A G100U U134A | ≤ -4.2
47 | A26U C51A A60U G88U C95U C118U G141C | ≤ -4.2
48 | A28C C108A G136A | ≤ -4.2
49 | C27U G50U C95U C114U C118G A138U | ≤ -4.2
50 | C27A C79U | ≤ -4.2
51 | A24U A98G | 0.444
52 | A26U U146G | -1.92
53 | C27U U101G G136A | -1.57
54 | C27G U33A U55A C87A A98C U104G U148A | ≤ -4.2
55 | A28C U31A A91G U104C | ≤ -4.2
56 | C27A G50C G74C U77C U104A | ≤ -4.2
57 | C27G G84A | -3.69
58 | A26U C27A A29U G34A U61A C76G | ≤ -4.2
59 | A24U C96G G143U A147U | -3.7
60 | C27A C87A C93A G143C U144G | ≤ -4.2
61 | G25U G50U A73G U101G | -2.68
62 | G25U G68U G83U U104G A115C | ≤ -4.2
63 | G25C A28U C54U G83A C99U G124A | ≤ -4.2

Row | Variant | polymerase ribozyme fitness (log ratio)
64 | C27A A41U C116U G136C U144A | ≤ -4.2
65 | A26G G46U A52G C116U G140C G143C | ≤ -4.2
66 | A26G C32A C35A G59U U90C C93G U146G | ≤ -4.2
67 | A24U C36U A60G G80A G94C | -3.57
68 | A26U A39U G94U A113U A119G U127C G152C | ≤ -4.2
69 | A24U G50U G143C | -2.91
70 | A26U U44A C93A A142C | ≤ -4.2
71 | C27A G86A U134A A147G | ≤ -4.2
72 | A26U C51U A89G C105G U134G U144A | ≤ -4.2
73 | A24U C85G | -2.77
74 | A24U C85A | -1.22
75 | A26C U61A | -3.34
76 | G25A C96G C99G G152U | ≤ -4.2
77 | A26U C116U G141A | -1.75
78 | A24U C93U A98G C132U A142G | -4.17
79 | C27U A47U U53A | -2.28
80 | C27A U44A U55A A66G C87U C95G A110G C114U U144A | ≤ -4.2
81 | C27A U82A A91G C131G U139C | ≤ -4.2
82 | A26U G88U C118G G143C | ≤ -4.2
83 | G25A C75A A91U | ≤ -4.2
